Test results taken from patent EP4624492A1.
Positions count from the first letter of the chain named. Like-named read-outs stand apart in the source and are kept apart here. Each block holds one binder with its values, some of them ahead of it.

Legend:
human CCR8 (human) [1] = biological target: human CCR8 (human) (UniProt P51685); test: cell-based or functional assay
human CCR8 (human) [2] = biological target: human CCR8 (human) (UniProt P51685); test: flow cytometry on CHOK1-hCCR8 cells
human CCR8 (human) [3] = biological target: human CCR8 (human) (UniProt P51685); test: flow cytometry on HuT78 cells (endogenous CCR8)
human CCR8 (human) [4] = biological target: human CCR8 (human) (UniProt P51685); test: flow cytometry on 293F-hCCR8 cells
human CCR8 (human) [5] = biological target: human CCR8 (human) (UniProt P51685); test: flow cytometry, competition with 10 nM AF647-human CCL1 on 293F-hCCR8 cells
[6] = biological target: cynomolgus CCR8 (cynomolgus monkey); test: flow cytometry on 293T-cynoCCR8 cells
human CCR8 (human) [7] = biological target: human CCR8 (human) (UniProt P51685); test: flow cytometry on 293F-hCCR8 cells; remark: listed apart in the source
human CCR8 (human) [8] = biological target: human CCR8 (human) (UniProt P51685); test: flow cytometry, competition with 10 nM AF647-human CCL1 on 293F-hCCR8 cells; remark: listed apart in the source
[9] = biological target: cynomolgus CCR8 (cynomolgus monkey); test: flow cytometry on 293T-cynoCCR8 cells; remark: listed apart in the source
human CCR8 (human) [10] = biological target: human CCR8 (human) (UniProt P51685); test: flow cytometry, competition with 10 nM AF647-human CCL1 on 293F-hCCR8 cells; remark: listed apart in the source
human CCR8 (human) [11] = biological target: human CCR8 (human) (UniProt P51685); test: flow cytometry on 293F-hCCR8 cells; remark: listed apart in the source

human CCR8 (human), sequence (P51685 whole entry): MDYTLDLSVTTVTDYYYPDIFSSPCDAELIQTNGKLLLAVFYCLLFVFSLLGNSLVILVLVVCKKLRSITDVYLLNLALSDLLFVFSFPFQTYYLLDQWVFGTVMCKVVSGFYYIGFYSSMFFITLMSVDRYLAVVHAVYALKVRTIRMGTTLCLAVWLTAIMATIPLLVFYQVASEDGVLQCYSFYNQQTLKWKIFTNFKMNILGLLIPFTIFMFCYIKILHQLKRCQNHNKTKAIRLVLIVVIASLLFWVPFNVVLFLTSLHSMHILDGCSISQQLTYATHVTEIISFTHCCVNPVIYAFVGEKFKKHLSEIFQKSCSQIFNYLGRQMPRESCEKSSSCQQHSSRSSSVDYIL

B1: 559E1B10_hzH0L0_hIgG1 (antibody, V domains shown)
VH: QVQLVQSGAEVKKPGASVKVSCKASGYTFTDYYVNWVRQAPGQGLEWMGVINPHNGDTRYNQKFKGRVTMTRDTSTSTVYMELSSLRSEDTAVYYCASWLRRGYYFDSWGQGTTVTVSS
VL: EIVLTQSPATLSLSPGERATLSCRASQSISDYLHWYQQKPGQAPRLLIYYVSQSISGIPARFSGSGSGTDFTLTISSLEPEDFAVYYCQNGHSFPLTFGGGTKVEIKR
- EC50 of activation of Jurkat-human FcγRIIIa(158V)-NFAT with 293F-hCCR8 target cells (human CCR8 (human) [1]): 0.855 µg/mL

B3: 559E1B10_hzH1L0_hIgG1 (antibody, V domains shown)
VH: B1 VH with R72V, T74K
VL: B1 VL
- EC50 of activation of Jurkat-human FcγRIIIa(158V)-NFAT with 293F-hCCR8 target cells (human CCR8 (human) [1]): 1.69 µg/mL

B4: 4A19_hIgG1 (antibody, from another filing, V domains shown)
VH: QVQLVQSGAEVKKPGASVKVSCKASGYTFTDSEMHWVRQATGQGLEWMGAIQPETGGTAYNQKFKARVTMTRDTSISTAYMELSSLRSEDTAVYYCARRRRNFDYWGQGTLVTVSS
VL: DIVMTQTPLSLSVTPGQPASISCRSSQSLFHSSGNTYLHWYLQKPGQPPQLLIYKVSNRFSGVPDRFSGSGSGTDFTLKISRVEAEDVGVYYCSQSTHVPFTFGQGTKLEIKR
- EC50 of activation of Jurkat-human FcγRIIIa(158V)-NFAT with CHOK1-hCCR8 target cells (human CCR8 (human) [1]): 0.0141 µg/mL

B5: B16_hIgG1 (antibody, from another filing, V domains shown)
VH: EVQLVESGGGLVQPGGSLKLSCAASGFTFNTYAMNWVRQASGKGLEWVGRIRSKSNNYATYYADSVKDRFTISRDDSKNTAYLQMNSLKTEDTAVYYCVRGLLRYRFFDVWGQGTTVTVSS
VL: DIVMTQSPLSLPVTPGEPASISCRSSKSLLHSNGNTYLYWFLQKPGQSPQLLIYRMSNLASGVPDRFSGSGSGTDFTLKISRVEAEDVGVYYCMQHLEYPFTFGGGTKVEIKR
- EC50 of ADCC effect (lysis%) by human PBMCs on CHOK1-hCCR8 cells (human CCR8 (human) [1]): 0.00238 µg/mL
- EC50 of activation of Jurkat-human FcγRIIIa(158V)-NFAT with 293F-hCCR8 target cells (human CCR8 (human) [1]): 0.0131 µg/mL
- EC50 of activation of Jurkat-human FcγRIIIa(158V)-NFAT with CHOK1-hCCR8 target cells (human CCR8 (human) [1]): 0.0265 µg/mL
- EC50 (human CCR8 (human) [2]): 0.0356 µg/mL
- EC50 (human CCR8 (human) [3]): 0.0364 µg/mL

The next lines start with the values.

- EC50 of activation of Jurkat-human FcγRIIIa(158V)-NFAT with 293F-hCCR8 target cells (human CCR8 (human) [1]): 0.706 µg/mL
B2: 559E1B10_hzH2L0_hIgG1 (antibody, V domains shown)
VH: B1 VH with M48I, V68A, M70L, R72V, T74K
VL: B1 VL

- EC50 (human CCR8 (human) [4]): 0.156 µg/mL
- IC50 of blockade of CCL1-induced β-arrestin recruitment (human CCR8 (human) [1]): 2.36 µg/mL
- IC50 of blockade of CCL1-induced β-arrestin recruitment (Tango-H CCR8-CHO-K1 cells) (human CCR8 (human) [1]): 1.29 µg/mL
- IC50 (human CCR8 (human) [5]): 0.0965 µg/mL
- EC50 (human CCR8 (human) [2]): 0.0788 µg/mL
- EC50 [6]: 15.3 µg/mL
- EC50 (human CCR8 (human) [7]): 0.153 µg/mL
- IC50 (human CCR8 (human) [8]): 0.0943 µg/mL
- EC50 [9]: 14.6 µg/mL
- IC50 (human CCR8 (human) [10]): 0.0705 µg/mL
- EC50 (human CCR8 (human) [11]): 0.206 µg/mL
- EC50 (human CCR8 (human) [3]): 0.0763 µg/mL
B6: anti-human CCR8 433H (antibody, from another filing, V domains shown)
VH: EVQLVETGGGLVQPKGSLRLSCAASGFPFNTFAMNWVRQAPGKGLEWLARIRSKSNNYATYYADSVKDRFTISRDDSRRMLYLLMNNVKFEDTAIYYCVRGKENNYGYAMDYWGQGTSVTVSS
VL: DIVMTQAAPSVPVTPGESVSISCRSSQSLLHSNGNTYLYWFLQRPGQSPQLLIYRMSNLASGVPDRFSGSGSGTAFTLRISRVEAEDVGVYYCMQHLEYPFTFGIGTKLELKR
